Laboratory results taken from patent US7910344B2, “Proteins having tyrosinase activity” (Valtion teknillinen tutkimuskeskus, priority 2005, dated 2011).
Entries after “also recorded” stand apart in the source; their conditions may differ.

How the values were obtained:
[1] = Stability of the enzyme at different pH-values (residual activity on L-Dopa); type: physicochemical; conditions: McIlvaine buffer, room temperature
Procedure: The stability of the enzyme at different pH-values was determined in McIlvaine, 50 mM Na2HPO4-25 mM citric acid, buffer by incubating the enzyme solution in different pH-values at room temperature. The residual tyrosinase activity was determined by measuring the activity of the enzyme solutions with L-Dopa as substrate.

caseinate = test: Caseinate gel hardness by Texture Analyzer; conditions: 3% caseinate, 0.4% GDL, 20 nkat/g protein TYR2, 22 hours, room temperature
Procedure: 3% of commercial caseinate was mixed in water and 0.4% GDL (glucono-delta-lactone) and 20 nkat/g protein of TYR2 was added to the mixture. It was allowed to rest for 22 hours at room temperature, whereafter the gel hardness was measured by Texture Analyzer (FIG. 6).

α-casein = test: Cross-linking of model proteins followed by changes in MW on SDS-PAGE
Procedure: The cross-linking ability in model proteins of TYR2 was also analyzed by following changes in MW on SDS-PAGE. […] Details are given in examples 8 and 9.

[2] = pH optimum of the tyrosinase by oxygen consumption measurements; type: biochemical; conditions: 15 mM L-Dopa, 4.3 μg purified tyrosinase
Procedure: pH optimum for the tyrosinase was studied by oxygen consumption measurements. Measurements were performed with a single channel oxygen meter (Precision sensing GmbH, Germany) containing fiber-optic oxygen minisensors with measurement range 0-100% oxygen. L-Dopa in 15 mM concentration, dissolved in 0.1 M sodium phosphate buffer, pH 7.0, was used as substrate. Reactions were carried out with 1.8 ml substrate solution and with 4.3 μg of the purified T. reesei tyrosinase. Three different buffers were used according to their buffer capacity. McIlvaine buffer was used within a pH range of 2-7, Tris-HCl buffer (50 mM) within a pH range 7-9 and borate buffer (12.5 mM) within a pH range of 8-9.5. The pH optimum of TYR2 is at 8-8.5. The enzyme has relatively high activity within a quite wide pH range, 5-9. […] In the measurements with Tris-HCl buffer in pH 8, 8.5 and 9.0 also a blank test without enzyme addition was performed to correct the effect of auto-oxidation in results. The pH optimum of the tyrosinase seemed to be dependant on the buffer.

[3] = Kieffer extensibility test of wheat dough; conditions: 1 and 10 nkat/g flour, resting 15-45 min, about 22° C.
Procedure: The influence of TYR2 on the large deformation rheology of wheat dough was investigated by using Kieffer extensibility rig (Stable Micro Systems, Ltd. United Kingdom). Dough extensibility and resistance to extension were measured as a function of enzyme dosage and dough's resting time.
Wheat flour was mixed with Farinograph (Brabender, Germany) using 12 g flour and 7.2 ml liquid phase (60%). Tyrosinase (1 and 10 nkat/g flour) was added to water right before mixing with flour. Mixing time was 4 min. Subsequently, dough was placed into a mould to produce approximately 10-12 test strings. The pressed mould was kept at room temperature for 15-45 min to allow stress relaxation. In the Kieffer tests, dough strings were centrally extended until the elastic limit of the string was exceeded and it ruptured. Maximum resistance Rmax, maximum extensibility Emax and extensibility Ex at Rmax were determined by recording the peak force and the distance at the maximum and at the extension limit. All dough preparations, enzyme treatments and measurements were performed at room temperature, approximately at 22° C.

[4] = test system: salt soluble proteins (SSP) of chicken breast muscle myofibrils; test: Cross-linking of chicken myofibril salt soluble proteins followed by SDS-PAGE
Procedure: Changes in the molecular weight of the isolated salt soluble proteins (SSP) of chicken breast muscle myofibrils caused by TYR2 were analysed by SDS-PAGE. SPP were isolated according to Xiong and Brekke, 1989. For enzyme treatment SSP was suspended in 50 mM Na-phosphate buffer, pH 7, containing 0.6 M NaCl to the protein concentration of 3 mg/ml. 120 nkat or 240 nkat of TYR2 per gram of protein was added to the suspension. Control suspension was treated in a similar way but without enzyme addition. Reaction mixture was incubated at 30° C. Samples were drawn at the time points of 2 min, 1 hour, 3 hours and 24 hours. SDS-PAGE sample buffer was added and the samples were heated in a boiling water bath. 20 μg of protein from each sample was loaded onto 12% Tris-HCl polyacryl amide gels. SDS-PAGE was performed according to Laemmli, 1970.

Isoelectric focusing = type: physicochemical; conditions: purified TYR2, Coomassie Blue staining, pH range 3.5-9.5
Procedure: The isoelectric point (pI) of the enzyme from culture supernatant and purified enzyme was determined by isoelectric focusing within a pH range of 3.5-9.5 (Ampholine PAGplate 3.5-9.5 for IEF, Amersham Bioscience) on an LKB 2117 Multiphor II Electrophoresis System (LKB Pharmacia, Bromma, Sweden) according to manufacturer's instructions. Bands containing tyrosinase activity were visualized by staining the gel with 15 mM L-Dopa in 0.1 M sodium phosphate buffer (pH 7.0) and proteins by Coomassie Blue staining. […] Under native conditions in isoelectric focusing both the culture filtrate and the purified tyrosinase didn't show a clear band, when stained with L-Dopa, instead the activity was observed as a brown zone at about pH 9.

[5] = test system: chicken breast myofibrils; test: Gel forming of chicken myofibril matrix, storage modulus (G′), Bohlin Rheometer; conditions: 240 nkat TYR2/g protein, 25, 30 and 40° C., 3 hours, pH 6
Procedure: Ability of TYR2 to form cross-links in a chicken myofibril matrix was also investigated as a development of storage modulus (G′) measuring gel forming ability at low deformation. Measurements were carried out during heating at constant temperature using a Bohlin Rheometer. Chicken breast myofibrils were isolated according to Xiong and Brekke (1989) omitting EDTA and NaN3 from the isolation buffer. Isolated myofibrils were suspended in 50 mM Na-phosphate buffer, pH 6, supplemented with 0.30 M NaCl to the protein concentration of 40 mg/ml. Suspensions were treated with 240 nkat of TYR2 per gram of protein at 25° C., 30° C. and 40° C. for 3 hours. Control samples were treated in a similar way but without enzyme.

pH range of relatively high activity [2]: 5-9 | pH optimum ([2]; McIlvaine, Tris-HCl, borate buffers): 8-8.5
B1: TYR2: extracellular tyrosinase of Trichoderma reesei encoded by tyr2, SEQ ID NO:4, 571 amino acids, C-terminally processed (protein, listed as Trichoderma reesei)
chain: MLLSASLSALALATVSLAQGTTHIPVTGVPVSPGAAVPLRQNINDLAKSGPQWDLYVQAMYNMSKMDSHDPYSFFQIAGIHGAPYIEYNKAGAKSGDGWLGYCPHGEDLFISWHRPYVLLFEQALVSVAKGIANSYPPSVRAKYQAAAASLRAPYWDWAADSSVPAVTVPQTLKINVPSGSSTKTVDYTNPLKTYYFPRMSLTGSYGEFTGGGNDHTVRCAASKQSYPATANSNLAARPYKSWILVTDTESGPQYDVLTNSQNFADFASTSGPGINVEQIHNAIHWDGACGSQFLAPDYSGFDPLFFMHHAQVDRMWAFWEAIMPSSPLFTASYKGQSRFNSKSGSTITPDSPLQPFYQANGKFHTSNTVKSIQGMGYSYQGIEYWQKSQAQIKSSVTTIINQLYGPNSGKKRNAPRDFLSDIVTDVENLIKTRYFAKISVNVTEVTVRPAEINVYVGGQKAGSLIVMKLPAEGTVNGGFTIDNPMQSILHGGLRNAVQAFTEDIEVEILSKDGQAIPLETVPSLSIDLEVANVTLPSALDQLPKYGQRSRHRAKAAQRGHRFAVPHIPPL
modifications: C-terminally processed
pH stability [1]: good stability at neutral and alkaline pH | Hardness of caseinate gel (caseinate): doubled the hardness of the caseinate gel | Cross-linking ability (changes in MW on SDS-PAGE) (α-casein): able to cross-link | Dough extensibility Ex at Rmax [3]: decreased the dough extensibility Ex at Rmax | Maximum resistance Rmax of dough [3]: increased the maximum resistance Rmax of dough | Detectable electrophoretic changes of SSP ([4]; 120 or 240 nkat TYR2/g protein, 30° C., pH 7, up to 24 h): progressive disappearance of the myosin band of ˜200 kDa; also recorded: progressive disappearance of the band of ˜36 kDa; also recorded: appearance of large molecular weight protein products (>200 kDa) | Cross-linking ability (changes in MW on SDS-PAGE) ([4]; chicken myofibril): able to cross-link | Isoelectric point (bands in isoelectric focusing) (Isoelectric focusing): ~9 | Storage modulus (G′), gel forming [5]: greater increase in G′
